Test: yeast display, Sf9 membrane polyspecificity reagent, FACS + sequencing; frameworks hold sequencing errors
Method in brief: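 In a synthetic yeast display library (Saccharomyces cerevisiae BJ5465), nanobody expression was induced with galactose for 36–48 hours. FACS gates were set low and high (top ~1%) using anti-HA fluorescence for expression and streptavidin fluorescence for binding of the Sf9 membrane reagent. Each polyreactivity label is drawn from the gate of origin.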

| Sequence | polyreactivity (PSR sort gate) |
| --- | --- |
| QVQLVESGGGLVQAGGSLRLSCAASGRIFHTYGRRWSRQAPGKEREFVAAITWTGGSTYYADSVKGRFTISRDNAKNTFYLQMNSLKPEDTAVYYCAADYPRDIIGSMDYWGQGTQVTVSW | low polyreactivity |
| QVQLVESGGGLVQAGGSLRLSCAASGRIFHVNAMGWYRQAPGKERELVATITTSGGTTYYADSVKGRFTISRDKAKNTVYLQMNSLKPEDTAVYYCAAKFPRQYSSRYNYWGQGTQVTVSS | low polyreactivity |
| QVQLVESGGGLVQAGGSLRLSCAASGRIFHWYAMGWYRQAPGKERELVATANTSYADSVKGRFTISRDNAKNTVYLQMNSLKPEDTALYYCATVGPRGRSLGDYWGQGTQVTVSS | low polyreactivity |
| QVQLVESGGGLVQAGGSLRLSCAASGRIFHYNAMGWYRQAPGKERELVAAISTGGSTNYADSVKGRFTISRDNAKNTVYLQMNSLKPEDTAVYYCNADLYVDPWTYFGYDYWGQGTQVTVSS | low polyreactivity |
| QVQLVESGGGLVQAGGSLRLSCAASGRIFHYYAMGWYRQAPGKERELVAAINKSGGRTYYADSVKGRFTISRDNAKNTVYLQMNSLKPEDTAVYYCAAQDGYWGQGTQVTVSS | high polyreactivity |
| QVQLVESGGGLVQAGGSLRLSCAASGRIFHYYAMGWYRQAPGKERELVAAINSAGSTKYADSVKGRFTISRDNAKNTVYLQMNSLKPEDTAVYYCAAERGSRDGGYDYWGQGTQVTVSS | low polyreactivity |
| QVQLVESGGGLVQAGGSLRLSCAASGRIFHYYAMGWYRQAPGKERELVAAIRWSGGDTYYADSVKGRFTISRDNAKNTVYLQMNSLKPEDTAVYYCAAYEHVYEYDYWGQGTQVTVSS | low polyreactivity |
| QVQLVESGGGLVQAGGSLRLSCAASGRIFHYYAMGWYRQAPGKERELVAAISWSGGSTYYADSVKGRFTISRDNAKNTVYLQMNSLKPEVTAVYYCNRQFGRRVYISHPGPGYWGQGTQVTVSS | high polyreactivity |
| QVQLVESGGGLVQAGGSLRLSCAASGRIFHYYAMGWYRQAPGKERELVASISTGGNTYYADSVKGRFTISRDNAKNTVYLQMNSLKPEVTAVYYCAAVTVRKFYKGINYWYEYWGEGTQVTVSS | high polyreactivity |
| QVQLVESGGGLVQAGGSLRLSCAASGRIFHYYMGWYRQAPGKERELVAVISSGDGTYYADSVKGRFTISRDNAKNTVYLQMNSLKPEDTAVYYCAADAPREYVDHYKYDDDYWGQGTQVNVSS | low polyreactivity |
| QVQLVESGGGLVQAGGSLRLSCAASGRIFIANTMGWYRQAPGKERELVAAITQRGDSTYYADSVKGRFTISRDNAKNTVYLQMNSLKPEDTAVYYCAARYYLSSYVRYNYWGQGTQVTVSS | high polyreactivity |
| QVQLVESGGGLVQAGGSLRLSCAASGRIFIAYAMGWYRQAPGKERELVAAITDDGGTNYADSVKGRFTISRDNAKNTVYLQMNSLKPEDTAVYYCAATYLIGYYYVWEYDYWGQGTQVTVSS | low polyreactivity |
| QVQLVESGGGLVQAGGSLRLSCAASGRIFIGYAMGWYRQAPGKERELVAAISWGGGSTFYADSVKGRFTISRDNAKNTVYLQMNSLKPEDTAVYYCNKVYRQRVVKGGYWGQGTQVTVSS | high polyreactivity |
| QVQLVESGGGLVQAGGSLRLSCAASGRIFIINAMGWYRQAPGKERELVAAITGTGSTYYADSVKGRFTISRDNAKNTVYLQMNSLKPEDTAVYYCAADVSYTYYGFWYDEYYWGQGTQVTVSS | high polyreactivity |
| QVQLVESGGGLVQAGGSLRLSCAASGRIFILYGMGWYRQAPGKERELVAAIRWSGASTYYADSVKGRFTISRDNAKNTVYLQMNSLKPEDTAVYYCAATVGFTPSFWYSSKYDYWGQGTQVTVSS | low polyreactivity |
| QVQLVESGGGLVQAGGSLRLSCAASGRIFINNAMGWYRQAPGKERELVAAISSRGGSTYYADSVKGRFTISRDNAKKTVYLQMNSLKPEDTAVYYCAVDVYEPRYRRPFHHDYWGQGTQVTVSS | low polyreactivity |
| QVQLVESGGGLVQAGGSLRLSCAASGRIFIPYAMGWYRQAPGKERELVAAISSSGGSTYYADSVKGRFTISRDTAKNTVYLQMNSLKPEDTAVYYCAARLYWGYAYETYSSLFEYDYWGQGTQVTVSS | low polyreactivity |
| QVQLVESGGGLVQAGGSLRLSCAASGRIFIRNAMGWYRQAPGKERELVAAITQSGGSTYYADSVKGRFSISRVYAKNTVYLQMNSLKPEDTAVYYCNAVRYNCVGYDYWGQGTQVTVSS | high polyreactivity |
| QVQLVESGGGLVQAGGSLRLSCAASGRIFIRNDMGWYRQAPGKERELVAVITRSGGRTYYADSVKGRFTISRDNAKNTVYLQMHSLKPEDTAVYSCAKRQAFKQAPYEYWGQGTQVTVSS | low polyreactivity |
| QVQLVESGGGLVQAGGSLRLSCAASGRIFISNAKGWYRQAPGKERELVAAITWIGDRTYYADSVKGRFTISRDNAKNTVYLQMNSLKPEDTAVYYCNRVTSRVSGRYSYDYWGQGTQVTVSS | high polyreactivity |
| QVQLVESGGGLVQAGGSLRLSCAASGRIFIWYGMGCYRQAPGKERELVADISSTGSTNYADSVKGRFTISRDNAKNTVYLQMNSLKPEDTAVYYCAADPETPYYTTYDYDYWGQGTQVTVSS | low polyreactivity |
| QVQLVESGGGLVQAGGSLRLSCAASGRIFIYNAKGWYRQAPGKERELVAAITSDGTTNYADSVKGRFTISRDNAKNTVYLQMNSLKPEDTAVYYCAVDPFGSLVTYDYWGQGTQVTVSS | low polyreactivity |

| Sequence | polyreactivity (PSR sort gate) |
| --- | --- |
| QVQLVESGGGLVQAGGSLRLSCAASGRIFIYYAMGWYRQAPGKERELVAAITSGGSTIYADSVKGRFTIPRDNAKNTVYLQMNSLKPEDTAVYDCAARYVRSQTRFDYWGQGTQVTVSS | high polyreactivity |
| QVQLVESGGGLVQAGGSLRLSCAASGRIFKAYAMGWYRQAPGKERELVAVITGTGRTTYADSVKGRFTISRDNAKNTVYLQMNSLKPEDTAVYYCNVRWYYKGDYWGQGTLVTVSS | high polyreactivity |
| QVQLVESGGGLVQAGGSLRLSCAASGRIFKCYAMGWYRQAPGKERELVAAISSGGRTYYADSVKGRFTISRDNAKNTVYLQMNSLKPEDTAVYYCAALQRTGPYAGSSGYWGQGSQVTVSS | high polyreactivity |
| QVQLVESGGGLVQAGGSLRLSCAASGRIFKDNAMGWYRQAPGKERELVATIDSGGDTNYADSVKGRFTISRDNAKNTVYLQMNSLKPEDTAVYYCNRDSRVLEGDYWGQGTQVTVSS | low polyreactivity |
| QVQLVESGGGLVQAGGSLRLSCAASGRIFKGYAMGWYRQAPGKESELVAAITWRGGTTYYADSVKGRFTISRDNAKNTVYLQMNSLKPEDTAVYYCARARPTGYNYWGQGTQVTVSS | high polyreactivity |
| QVQLVESGGGLVQAGGSLRLSCAASGRIFKINAMGWYRQAPGKERELVAGISGSGSDTYYSDSVKGRFTISRDNAKNTVYLQMNSLKPEDTAVYYCAAVAYDWALFYYWGQGTQVTVSS | low polyreactivity |
| QVQLVESGGGLVQAGGSLRLSCAASGRIFKINAMGWYRQAPGKERELVATITRDGRTYYADSVKGRFTISRDNAKNTVYLQMNSLKPEDTAVYYCNVRRAFSGWRGYDYWGQGTQVTVSS | high polyreactivity |
| QVQLVESGGGLVQAGGSLRLSCAASGRIFKLYAMGWYRQAPGKERELVASITWGGGSTNYADSVKGRFTISRDNAKNTVYLQMNSLKPEDTAVYYCAAVYSKYAVFWEYDYWGQGTQVTVSS | low polyreactivity |
| QVQLVESGGGLVQAGGSLRLSCAASGRIFKLYAMGWYRQAPGKERELVATIRYSGGSTYYADSVKGRFTISRDNAKNSVYLHMNSLKPEDTAVYYCNYVSRRQYFEYDYWGQGTQVTVSS | low polyreactivity |
| QVQLVESGGGLVQAGGSLRLSCAASGRIFKLYAMGWYRQAPGKESELVAAITRRGGSTSYADSVKGRFTISRVNAKNTVYLQMNSLKPEDTSVYYCAASLSPWFTSYYLPYDLGYWGQGTQVTVSS | high polyreactivity |
| QVQLVESGGGLVQAGGSLRLSCAASGRIFKNNTMGWYRQAPGKERELVAAISCSGGSTYYADSVKGRFTISRDNAKNTVYLQINSLKPEDTAVYYCATTYEPNGGIEDDYWGQGTQVTVSS | low polyreactivity |
| QVQLVESGGGLVQAGGSLRLSCAASGRIFKNYAMGWYRQAPGKERELVAAITWSVGSTYYADSVKGRFTISRDNAKNTVYLQMNSLKPEDTAVYYCAARRSDFRGAKDGYYYWGQGTQVTVSS | low polyreactivity |
| QVQLVESGGGLVQAGGSLRLSCAASGRIFKPYAMGWYRQAPGKERELVASISRRGGSTYYADSVKGRFTISRDNAKNTVYLQMNSLKPEDTAVYDCNASGTYISLGYDYWGQGTQVTVSS | high polyreactivity |
| QVQLVESGGGLVQAGGSLRLSCAASGRIFKRNAMGCYRQAPGKERELVATIDWSGGSTYYADSVKGRFTISRDNAKNTVYLQMNSLKPEDTAVYYCAAASGRWNKYGYWGQGTQVTVSS | low polyreactivity |
| QVQLVESGGGLVQAGGSLRLSCAASGRIFKRNAMGWYRQAPGKERELVAAITGNVGSTYYADSVKGRFTISRDNAKNTVYLQMNSLKPEDTAVYYCAAYVQYSSIVGYGYWGQGTQVTVSS | high polyreactivity |
| QVQLVESGGGLVQAGGSLRLSCAASGRIFKRNTMGWYRQAPGKEMELVAAITYSGITYYADSVKGRFTISRDNAKNTVYLQMNSLKPEDTAVYYCAKVLYPIGSPRFEFWGQGTQVTVSS | low polyreactivity |
| QVQLVESGGGLVQAGGSLRLSCAASGRIFKRYVMGWYRKAPGKERELVAAITWRGGTYYADSVKGRFTISRDNAKNTVYLQMNSLKPEDTAVYYCAADTYFSGAGGQAYQYDYWGLGTQVTVSS | high polyreactivity |
| QVQLVESGGGLVQAGGSLRLSCAASGRIFKSYAMGWYRQAPGIERELVAAIRSGGSTYYADSVKGRFTISRDNAKNTVYLQMNSLKPEYTAVYYCNRVTRTWKVTYHSWGQGTQVTVSS | high polyreactivity |
| QVQLVESGGGLVQAGGSLRLSCAASGRIFKSYDIGWYRQAPGKEMELVSAISQSGGGTYYADSVKGRFTISRDNAKNTVYLQMNSLKPEDTAVYYCAAYRRVNRYQKIDNYWGQGTQVTVSS | high polyreactivity |
| QVQLVESGGGLVQAGGSLRLSCAASGRIFKTNAMGWYRQAPGKERELVAAISKRGGRTYYADSVKGRFTISRDNAKNTVYLQMNSLKPEDTAVYYCATRYSGYSLGDYWGQGTQVTVSS | high polyreactivity |
| QVQLVESGGGLVQAGGSLRLSCAASGRIFKVYTMGWYRQAPGKERELVATITRSGTSTYYADSVKGRFTISRDIAKNTVYLQMNSLKPEDTAVYYCARLVGYKFSYDYWGQGTQVTVSS | high polyreactivity |

Source: the nanobody polyreactivity screen of Harvey et al. (2022)
